Results published in the supplement of paper PMC9112550, “Optimization of the antimicrobial peptide Bac7 by deep mutational scanning” (BMC Biology, 2022).

tested on: Escherichia coli TOP10; test: shrunken log2 fold change of peptide-encoding DNA abundance (4.5 h post-induction vs induction); higher = less antimicrobial activity (less host growth inhibition); details: time post-induction: 4.5 h; library: site-saturation at positions 5, 18, 19, 20
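Also: peptides expressed intracellularly from a pBAD plasmid library in pooled LB shake-flask culture, induced with 0.3% L-arabinose, DNA abundance read by NGS, three biological replicates, DESeq2 with apeglm shrinkage.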

Sequence | shrunken log2 fold change
RRIRSRPPRLPRPRPRPIPGPRP | -0.0336
RRIRSRPPRLPRPRPRPIQCPRP | 0.0235
RRIRSRPPRLPRPRPRPISEPRP | -0.0465
RRIRSRPPRLPRPRPRPITVPRP | -0.132
RRIRSRPPRLPRPRPRPITWPRP | -0.284
RRIRSRPPRLPRPRPRPIVMPRP | 0.0137
RRIRSRPPRLPRPRPRPIVWPRP | -0.0774
RRIRSRPPRLPRPRPRPIWGPRP | 0.0936
RRIRSRPPRLPRPRPRPIYAPRP | 0.0432
RRIRSRPPRLPRPRPRPKCDPRP | 0.00444
RRIRSRPPRLPRPRPRPKCIPRP | -0.256
RRIRSRPPRLPRPRPRPKCVPRP | -0.138
RRIRSRPPRLPRPRPRPKCYPRP | -0.16
RRIRSRPPRLPRPRPRPKDGPRP | 0.307
RRIRSRPPRLPRPRPRPKEAPRP | -0.144
RRIRSRPPRLPRPRPRPKEKPRP | -0.00788
RRIRSRPPRLPRPRPRPKEYPRP | 0.167
RRIRSRPPRLPRPRPRPKFHPRP | -0.441
RRIRSRPPRLPRPRPRPKFIPRP | -0.482
RRIRSRPPRLPRPRPRPKGMPRP | -0.0819
RRIRSRPPRLPRPRPRPKHYPRP | -0.233
RRIRSRPPRLPRPRPRPKIDPRP | -0.000854

Sequence | shrunken log2 fold change
RRIRSRPPRLPRPRPRPKIQPRP | -0.311
RRIRSRPPRLPRPRPRPKKAPRP | 0.0943
RRIRSRPPRLPRPRPRPKLRPRP | 0.111
RRIRSRPPRLPRPRPRPKMEPRP | -0.0294
RRIRSRPPRLPRPRPRPKNMPRP | -0.324
RRIRSRPPRLPRPRPRPKNVPRP | -0.29
RRIRSRPPRLPRPRPRPKPMPRP | 0.2
RRIRSRPPRLPRPRPRPKQEPRP | 0.286
RRIRSRPPRLPRPRPRPKQQPRP | 0.741
RRIRSRPPRLPRPRPRPKREPRP | 0.393
RRIRSRPPRLPRPRPRPKRFPRP | 0.0952
RRIRSRPPRLPRPRPRPKRGPRP | 0.0665
RRIRSRPPRLPRPRPRPKRHPRP | 0.169
RRIRSRPPRLPRPRPRPKRPPRP | 0.413
RRIRSRPPRLPRPRPRPKRTPRP | 0.312
RRIRSRPPRLPRPRPRPKTIPRP | -0.174
RRIRSRPPRLPRPRPRPKVFPRP | -0.063
RRIRSRPPRLPRPRPRPKVLPRP | 0.248
RRIRSRPPRLPRPRPRPKWIPRP | -0.553
RRIRSRPPRLPRPRPRPKYAPRP | -0.323
RRIRSRPPRLPRPRPRPKYSPRP | -0.253
RRIRSRPPRLPRPRPRPLALPRP | -0.107

Sequence | shrunken log2 fold change
RRIRSRPPRLPRPRPRPLDDPRP | -0.0921
RRIRSRPPRLPRPRPRPLFMPRP | -0.236
RRIRSRPPRLPRPRPRPLFQPRP | -0.126
RRIRSRPPRLPRPRPRPLGHPRP | -0.051
RRIRSRPPRLPRPRPRPLIDPRP | -0.197
RRIRSRPPRLPRPRPRPLKRPRP | 0.026
RRIRSRPPRLPRPRPRPLKSPRP | 0.0254
RRIRSRPPRLPRPRPRPLKTPRP | -0.0127
RRIRSRPPRLPRPRPRPLKWPRP | 0.0381
RRIRSRPPRLPRPRPRPLKYPRP | -0.653
RRIRSRPPRLPRPRPRPLNVPRP | -0.0872
RRIRSRPPRLPRPRPRPLPSPRP | 0.255
RRIRSRPPRLPRPRPRPLQWPRP | -0.0911
RRIRSRPPRLPRPRPRPLSLPRP | 0.0119
RRIRSRPPRLPRPRPRPLSNPRP | -0.00773
RRIRSRPPRLPRPRPRPLSWPRP | 0.239
RRIRSRPPRLPRPRPRPLVAPRP | 0.27
RRIRSRPPRLPRPRPRPLVVPRP | 0.268
RRIRSRPPRLPRPRPRPLWMPRP | -0.0686
RRIRSRPPRLPRPRPRPLYPPRP | -0.813
RRIRSRPPRLPRPRPRPMAEPRP | 0.348
RRIRSRPPRLPRPRPRPMCNPRP | -0.287

Sequence | shrunken log2 fold change
RRIRSRPPRLPRPRPRPMDRPRP | -0.155
RRIRSRPPRLPRPRPRPMDTPRP | 0.0136
RRIRSRPPRLPRPRPRPMELPRP | -0.187
RRIRSRPPRLPRPRPRPMIEPRP | -0.0828
RRIRSRPPRLPRPRPRPMIQPRP | 0.0624
RRIRSRPPRLPRPRPRPMMFPRP | 0.0732
RRIRSRPPRLPRPRPRPMMIPRP | -0.196
RRIRSRPPRLPRPRPRPMQQPRP | 0.178
RRIRSRPPRLPRPRPRPMWPPRP | 0.447
RRIRSRPPRLPRPRPRPMWWPRP | 0.551
RRIRSRPPRLPRPRPRPMYEPRP | 0.0571
RRIRSRPPRLPRPRPRPMYIPRP | -0.354
RRIRSRPPRLPRPRPRPNAIPRP | 0.235
RRIRSRPPRLPRPRPRPNCGPRP | -0.146
RRIRSRPPRLPRPRPRPNDNPRP | -0.57
RRIRSRPPRLPRPRPRPNDSPRP | -0.342
RRIRSRPPRLPRPRPRPNFGPRP | -0.265
RRIRSRPPRLPRPRPRPNICPRP | -0.0465
RRIRSRPPRLPRPRPRPNIKPRP | -0.491
RRIRSRPPRLPRPRPRPNLHPRP | -0.219
RRIRSRPPRLPRPRPRPNMLPRP | -0.323
RRIRSRPPRLPRPRPRPNNRPRP | -0.475

Sequence | shrunken log2 fold change
RRIRSRPPRLPRPRPRPNPNPRP | -0.283
RRIRSRPPRLPRPRPRPNQCPRP | -0.215
RRIRSRPPRLPRPRPRPNQPPRP | 0.0618
RRIRSRPPRLPRPRPRPNRYPRP | -0.296
RRIRSRPPRLPRPRPRPNTFPRP | -0.0296
RRIRSRPPRLPRPRPRPNVRPRP | -0.0771
RRIRSRPPRLPRPRPRPNVSPRP | -0.0656
RRIRSRPPRLPRPRPRPNWDPRP | -0.315
RRIRSRPPRLPRPRPRPNWNPRP | -0.453
RRIRSRPPRLPRPRPRPNYPPRP | -0.195
RRIRSRPPRLPRPRPRPNYWPRP | -0.143
RRIRSRPPRLPRPRPRPPAYPRP | -0.0776
RRIRSRPPRLPRPRPRPPCCPRP | -0.107
RRIRSRPPRLPRPRPRPPDHPRP | 0.202
RRIRSRPPRLPRPRPRPPERPRP | 0.0652
RRIRSRPPRLPRPRPRPPFPPRP | 0.256
RRIRSRPPRLPRPRPRPPGAPRP | 0.61
RRIRSRPPRLPRPRPRPPGTPRP | 0.396
RRIRSRPPRLPRPRPRPPHKPRP | 0.173
RRIRSRPPRLPRPRPRPPICPRP | 0.635
RRIRSRPPRLPRPRPRPPIHPRP | -0.329
